Laboratory results published in patent US11471494B2, “Microorganisms programmed to produce immune modulators and anti-cancer therapeutics in tumor cells” (Synlogic Operating Company, Inc., priority 2017, dated 2022).

How the values were obtained:
Details in all cases: supernatant
mCD47 = biological target: T1, mCD47 (Mus musculus, UniProt Q61735); test: SIRPα/CD47 ELISA binding assay of supernatants
T1 sequence (Q61735 19-303): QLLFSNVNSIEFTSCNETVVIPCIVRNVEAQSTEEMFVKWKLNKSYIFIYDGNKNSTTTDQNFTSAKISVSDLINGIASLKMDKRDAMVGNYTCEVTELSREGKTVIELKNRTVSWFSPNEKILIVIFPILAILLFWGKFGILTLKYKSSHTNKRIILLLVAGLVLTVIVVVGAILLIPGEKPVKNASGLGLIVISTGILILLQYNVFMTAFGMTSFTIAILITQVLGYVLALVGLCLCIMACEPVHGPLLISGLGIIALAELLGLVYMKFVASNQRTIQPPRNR

[1] = SIRPα/CD47 ELISA binding assay, control coatings
anti-mSIRPα antibody = test: SIRPα/CD47 ELISA binding assay, detection by antibody

B1: Secreted WT mSIRPα: wild type murine SIRPα secreted by engineered Nissle (SYN2996), in supernatant (protein)
chain: KELKVTQPEKSVSVAAGDSTVLNCTLTSLLPVGPIRWYRGVGPSRLLIYSFAGEYVPRIRNVSDTTKRNNMDFSIRISNVTPADAGIYYCVKFQKGSSEPDTEIQSGGGTEVYVLAKPSPPEVSGPADRGIPDQKVNFTCKSHGFSPRNITLKWFKDGQELHPLETTVNPSGKNVSYNISSTVRVVLNSMDVNSKVICEVAHITLDRSPLRGIANLSNFIRVSPTVKVTQQSPTSMNQVNLTCRAERFYPEDLQLIWLENGNVSRNDTPKNLTKNTDGTYNYTSLFLVNSSAHREDVVFTCQVKHDQQPAITRNHTVLGFAHSSDQGSMQTFPDNNATHNWN
modifications: left off: small tags and cut ends
- ELISA signal, coating mCD47 (mCD47): 1.069
- ELISA signal, coating IgG [1]: 0.056
- ELISA signal, coating PBS [1]: 0.059
- ELISA signal, coating Anti-mSIRPα (anti-mSIRPα antibody): 0.829
